The values below are quoted from earlier work in PMC9456110.

Like-named read-outs stand apart in the source and are kept apart here.

Series [1] has as its target Calmodulin (Homo sapiens) (UniProt P0DP23).
Series [2] has the same target. The source holds these as a separate data set.
The target is the same in series [3]. The source holds these as a separate data set.
The target of the next series is PIP (Homo sapiens) (UniProt P12273).
The target in series [4] is Calmodulin (Homo sapiens) (UniProt P0DP23). This is another data set of the same source.
For series [5] the target is unchanged. The source holds these as a separate data set.

UniProt P12273, sequence (P12273 29-146): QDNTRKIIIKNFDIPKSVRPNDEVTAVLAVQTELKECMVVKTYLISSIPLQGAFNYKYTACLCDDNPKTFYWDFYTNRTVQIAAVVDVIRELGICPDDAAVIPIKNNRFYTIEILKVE

Broadly, the Kd is the constant that tells how readily two partners part at equilibrium. As to AQP4 (from UniProt P55087), in series [1], the equilibrium dissociation constant (Kd) was 29 µM. Consider AQP4 C-terminus (from UniProt P55087), for which, in series [2], the equilibrium dissociation constant (Kd) was 3.6 µM. With AQP4 N-terminus (from UniProt P55087), the equilibrium dissociation constant (Kd) in series [3] was 3.4 µM.

As for AQP5 C-terminus (from UniProt P55064), the Kd with PIP (Homo sapiens) was 0.57 µM. With AQP6 N-terminus (from UniProt Q8C4A0), the equilibrium dissociation constant (Kd) in series [4] was 0.79 µM.

On to AQP6 N-terminus (from UniProt Q13520), for which the Kd in series [5] is 1.78 µM.
